The text below walks through data of PMC5709507.

The target of assay [1] is endogenous RORα of mouse cerebellar neurons and cerebellum (UniProt P51448). The assay can be described thus: co-immunoprecipitation (IP: RORα, IB: FLAG), quantified output band corrected by input band. As to conditions: primary cerebellar neurons, transient expression; n = 3; parent: est. 0.42; read off a plot.
Assay [2] has the same target. The experiment in a line: co-immunoprecipitation (IP: FLAG, IB: RORα), quantified output band corrected by input band. As to conditions: primary cerebellar neurons, transient expression; n = 3; parent: est. 3.2; read off a plot.

Chain of UniProt P51448 (P51448 whole entry): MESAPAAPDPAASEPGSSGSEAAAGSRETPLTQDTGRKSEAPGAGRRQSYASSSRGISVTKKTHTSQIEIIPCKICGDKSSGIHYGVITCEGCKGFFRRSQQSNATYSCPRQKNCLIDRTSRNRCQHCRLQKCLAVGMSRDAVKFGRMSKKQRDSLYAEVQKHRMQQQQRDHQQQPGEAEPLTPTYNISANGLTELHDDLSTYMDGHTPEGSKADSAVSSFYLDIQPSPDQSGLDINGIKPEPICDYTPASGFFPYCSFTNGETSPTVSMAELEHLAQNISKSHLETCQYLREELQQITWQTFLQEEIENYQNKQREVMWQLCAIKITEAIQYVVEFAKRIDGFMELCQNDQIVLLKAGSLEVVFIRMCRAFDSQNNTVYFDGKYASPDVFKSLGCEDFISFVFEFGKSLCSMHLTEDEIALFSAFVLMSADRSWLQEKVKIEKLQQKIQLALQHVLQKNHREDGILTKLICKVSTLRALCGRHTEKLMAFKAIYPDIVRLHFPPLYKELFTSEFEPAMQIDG

Regarding “Human YAP2 WT (FLAG-YAP2 WT) WQDP>AQDA (first WW domain)”, the response in assay [1] amounted to 0.4; in assay [2], 3.1.
